Experimental findings from patent US20060167238, “Gene expression using metal ion dependent repressor/operator tandems” (ADVANCED MICROBIAL SOLUTIONS CORPORATION, published 2006) are described below.

Holding throughout (experiment): EMSA
On the technique in general: In EMSA bound probe runs differently from free probe, usually more slowly.

Series [1] deals with EfaR (Enterococcus faecalis, UniProt Q93CH5 Q93CH5:1-222). To be noted: tags: untagged (pQN vector); label: 32P.
Series [2] addresses T1, DtxR (Corynebacterium diphtheriae, UniProt P0DJL7 P0DJL7:1-226).
T1 sequence: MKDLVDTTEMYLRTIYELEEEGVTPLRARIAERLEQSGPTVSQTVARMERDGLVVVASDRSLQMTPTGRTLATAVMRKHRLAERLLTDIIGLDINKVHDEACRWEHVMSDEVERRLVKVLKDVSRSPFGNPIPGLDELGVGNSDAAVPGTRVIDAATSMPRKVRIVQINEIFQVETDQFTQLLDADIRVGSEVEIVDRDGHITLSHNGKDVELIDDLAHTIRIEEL
To be noted: chain copies: 4.

The target in series [3] is T2, SirR (UniProt Q5HRA0 Q5HRA0:1-214).
T2 sequence: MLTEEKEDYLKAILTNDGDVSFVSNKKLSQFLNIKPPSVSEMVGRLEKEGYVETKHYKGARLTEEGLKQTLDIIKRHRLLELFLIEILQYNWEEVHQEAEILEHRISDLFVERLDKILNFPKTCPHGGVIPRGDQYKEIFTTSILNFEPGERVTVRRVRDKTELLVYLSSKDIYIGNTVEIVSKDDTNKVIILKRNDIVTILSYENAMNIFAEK

B1: efaABC promoter/operator (efa box) (dsDNA)
DNA 1: TTTTCTTAAACTATCCCTTATACTGATTTTAAGGCAAACCTAAAAA
DNA 2: TTTTTAGGTTTGCCTTAAAATCAGTATAAGGGATAGTTTAAGAAAA
B1: the binding result in series [1] is on record as “binds”.

B2: tacP (dsDNA)
DNA 1: CCCTGTTGACAATTAATCATCGGCTCGTATAATGTGTGGAATTGTGAGCGGATAACAATTTCA
DNA 2: TGAAATTGTTATCCGCTCACAATTCCACACATTATACGAGCCGATGATTAATTGTCAACAGGG
For the molecule B2, the binding result in series [2] was “no binding”.

B3: tacPtoxO hybrid promoter/operator (dsDNA)
DNA 1: CCCTGTTGACAATTAATCACCGGTACCTATAATTAGGATAGCTTTACCTAATTATTTTACACCC
DNA 2: GGGTGTAAAATAATTAGGTAAAGCTATCCTAATTATAGGTACCGGTGATTAATTGTCAACAGGG
With B3, the binding result in series [2] is recorded as “binds”.

B4: sitABC box (dsDNA)
DNA 1: AACTTGACATGTTAAAACTTTAGAGTATATTATAAAATAAATTAGGTTAACCTAAACTTTTTATTAGGAGG
DNA 2: CCTCCTAATAAAAAGTTTAGGTTAACCTAATTTATTTTATAATATACTCTAAAGTTTTAACATGTCAAGTT
Regarding B4, the binding result in series [3] is given as “binds”.
